This experiment concerns the target Proliferating cell nuclear antigen (PCNA), wild type (UniProt P15873). The experiment can be described thus: MST; fluorescently labeled PCNA (22 nM, RED-NHS) constant, Mus81 (1-319) fragment 1.3-5500 nM; T buffer with 0.05% Tween-20 and 150 mM KCl; 25 °C; Monolith NT.115; apparent Kd.

Positions count from the first letter of the chain named. Numbers in names are those of the source.

B1: N-terminal fragment of Mus81 (1-319) (domain or fragment)
chain: MELSSNLKDLYIEWLQELVDGLTPKQEQLKIAYEKAKRNLQNAEGSFYYPTDLKKVKGIGNTIIKRLDTKLRNYCKIHHISPVEAPSLTQTSSTRPPKRTTTALRSIVNSCENDKNEAPEEKGTKKRKTRKYIPKKRSGGYAILLSLLELNAIPRGVSKEQIIEVAGKYSDHCMTPNFSTKEFYGAWSSIAALKKHSLVLEEGRPKRYSLTEEGVELTKSLKTADGISFPKENEEPNEYSVTRNESSEFTANLTDLRGEYGKEEEPCDINNTSFMLDITFQDLSTPQRLQNNVFKNDRLNSQTNISSHKLEEVSDDQTV
Turning to B1, the Kd worked out at 0.253 µM.

B2: Mus81 (1-319) E44Q mutant (domain or fragment)
chain: B1 chain with E44Q
In the case of B2, the Kd came out at 20.5 µM.

These data come from article PMC5625722.
